Reference: the supplement of paper PMC9170038

Tested on: K4 kissing-loop RNA reporter
Assay: apparent KD of K4 kissing-loop reporter; higher = weaker reporter binding
Settings: Eterna round: R107
Method: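 RNA-MaP round R107: designed RNA switches with theophylline, tryptophan, arginine or FMN aptamers are transcribed on-chip within common flanks. They are titrated with a labelled K4 kissing-loop RNA reporter in RNA-MaP buffer (100 mM Tris pH 7.5, 80 mM KCl, 4 mM MgCl2), without ligand or with the indicated ligand. Median apparent KD per design.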

[1] = input ligand: theophylline 20 uM
[2] = input ligand: tryptophan 2.4 mM
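Also: bound reporter read as fluorescence of individual clusters on recovered sequencing chips by microscopy, with normalized cluster intensities fitted with a binding model.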

In the case of “AGCCGUCUAAGUGAUGUUUAGGCAUGUCAGCGAGGACCGGUACGGCCGCCACUCGUGCUAUUGAGAUUUCGGGUAGCCCACGUAG [theeternabot_sameState_KL_Trp_A_20]”, the “apparent KD of K4 kissing-loop reporter” value (input ligand: FMN 200 uM) is reported as 288 nM, the “apparent KD of K4 kissing-loop reporter” value (input ligand: arginine 13.2 mM) is reported as 187 nM and the “apparent KD of K4 kissing-loop reporter” value (input ligand: none) is reported as 271 nM. The “apparent KD of K4 kissing-loop reporter” value [1] was 125 nM and the “apparent KD of K4 kissing-loop reporter” value [2] was 163 nM.

With “AGUGAUGUGGGAAGGAGCGCUAUAAGACUUCAGUGAUGUUGAAGUGCUGGUUUAGUGUUGUAGCAGGUAGGUCGCCUAGAUGUUA [KL-XARG-B11]” the “apparent KD of K4 kissing-loop reporter” value (input ligand: FMN 200 uM) was 293 nM, the “apparent KD of K4 kissing-loop reporter” value (input ligand: arginine 13.2 mM) was 239 nM and the “apparent KD of K4 kissing-loop reporter” value (input ligand: none) was 275 nM. The “apparent KD of K4 kissing-loop reporter” value [1] was 196 nM and the “apparent KD of K4 kissing-loop reporter” value [2] was 218 nM.

For “UGUACCGAGUCAGGAUAUGGCGUCGAAAGACGAAUCCUAGUGAUGUUAGUGAUCUGCGAAAGCAGUCCAGAAGGGACUUGGUACU [FmnBS 26 U50]”, the “apparent KD of K4 kissing-loop reporter” value (input ligand: FMN 200 uM) was 199 nM, the “apparent KD of K4 kissing-loop reporter” value (input ligand: arginine 13.2 mM) was 321 nM and the “apparent KD of K4 kissing-loop reporter” value (input ligand: none) was 334 nM. The “apparent KD of K4 kissing-loop reporter” value [1] was 307 nM and the “apparent KD of K4 kissing-loop reporter” value [2] was 344 nM.

With “AAUAACUUGCAGUGAUGUUGCAAGAAAUCUCAGGAUAUCAGGAAACUGAGAAGGGAGUAUCCUGAGUAAACAUCACAUCUUAGGA [KL-SSFMN-A8]” the “apparent KD of K4 kissing-loop reporter” value (input ligand: FMN 200 uM) was 322 nM, the “apparent KD of K4 kissing-loop reporter” value (input ligand: arginine 13.2 mM) was 364 nM and the “apparent KD of K4 kissing-loop reporter” value (input ligand: none) was 399 nM. The “apparent KD of K4 kissing-loop reporter” value [1] was 376 nM and the “apparent KD of K4 kissing-loop reporter” value [2] was 369 nM.

For “AGACUACUGAUAGGAUAUAACAUCCUAGUCGUAUACCGAAAGGUAUACGAAACCCUUCUAGUGAUGUUAGAAGGGUCGGUAGUCA [Omei KL FMN B Exc B v9]”, the “apparent KD of K4 kissing-loop reporter” value (input ligand: FMN 200 uM) was 79.8 nM, the “apparent KD of K4 kissing-loop reporter” value (input ligand: arginine 13.2 mM) was 67.1 nM and the “apparent KD of K4 kissing-loop reporter” value (input ligand: none) was 80.9 nM. The “apparent KD of K4 kissing-loop reporter” value [1] was 59.6 nM and the “apparent KD of K4 kissing-loop reporter” value [2] was 69.4 nM.

In the case of “AAAUUUAUAUUAGAUACCAGCAUAUUGAAAGUUUAUUAUGACAAGAGUGAUGUUCUUGUAUGCCCUUGGCAGCUGGUAUGGGUUU [KL-XTheo-B25]”, the “apparent KD of K4 kissing-loop reporter” value (input ligand: FMN 200 uM) is reported as 114 nM, the “apparent KD of K4 kissing-loop reporter” value (input ligand: arginine 13.2 mM) is reported as 107 nM and the “apparent KD of K4 kissing-loop reporter” value (input ligand: none) is reported as 104 nM. The “apparent KD of K4 kissing-loop reporter” value [1] was 110 nM and the “apparent KD of K4 kissing-loop reporter” value [2] was 110 nM.

In the case of “GGGUAUUACGGAGGAUAUGCACUGAGGAGGAGAAUAUAGUGAUGUUAUAUAAGAGGAAGGAGAAGAGUAGAAGGCCGUGGUGUUU [SSFMNB.J]”, the “apparent KD of K4 kissing-loop reporter” value (input ligand: FMN 200 uM) is reported as 171 nM, the “apparent KD of K4 kissing-loop reporter” value (input ligand: arginine 13.2 mM) is reported as 126 nM and the “apparent KD of K4 kissing-loop reporter” value (input ligand: none) is reported as 170 nM. For the same sequence, the “apparent KD of K4 kissing-loop reporter” value [1] was 195 nM and the “apparent KD of K4 kissing-loop reporter” value [2] was 109 nM.

With “CAUACCCAGUGAUGUUGGGUCGGUACCGAUACCAGUCGUACAGCCGACCCUUGGCAGCGGUAGCAUUGCCCGGCGUCGGCUUGUG [theeternabot_exclusion_KL_Theo_A_17]” the “apparent KD of K4 kissing-loop reporter” value (input ligand: FMN 200 uM) was 767 nM, the “apparent KD of K4 kissing-loop reporter” value (input ligand: arginine 13.2 mM) was 581 nM and the “apparent KD of K4 kissing-loop reporter” value (input ligand: none) was 625 nM. For the same sequence, the “apparent KD of K4 kissing-loop reporter” value [1] was 445 nM and the “apparent KD of K4 kissing-loop reporter” value [2] was 381 nM.

For “AAGGUCACUACUACAGUGAUGUUGUGGGAGCAGGAUAUGCAGAAAUGCAGAAGGGCUCGCUCCAGGUGACCGAAUGAAACAUUCA [whbob_SS_FMNA__2th174]”, the “apparent KD of K4 kissing-loop reporter” value (input ligand: FMN 200 uM) was 1500 nM, the “apparent KD of K4 kissing-loop reporter” value (input ligand: arginine 13.2 mM) was 882 nM and the “apparent KD of K4 kissing-loop reporter” value (input ligand: none) was 1780 nM. The “apparent KD of K4 kissing-loop reporter” value [1] was 1140 nM and the “apparent KD of K4 kissing-loop reporter” value [2] was 1140 nM.

With “AACGACUGGAUGAAUAACAUCUAGUCGAUUCGAGGACCGGUACGGCCGCCACUCGAGCUAACUGCGAGUGAUGUUCGAUAAUAAA [#OpenEnded 3]” the “apparent KD of K4 kissing-loop reporter” value (input ligand: FMN 200 uM) was 347 nM, the “apparent KD of K4 kissing-loop reporter” value (input ligand: arginine 13.2 mM) was 433 nM and the “apparent KD of K4 kissing-loop reporter” value (input ligand: none) was 390 nM. For the same sequence, the “apparent KD of K4 kissing-loop reporter” value [1] was 524 nM and the “apparent KD of K4 kissing-loop reporter” value [2] was 96.6 nM.

For “GGGCAAGUGAGUGAUGUUCGAUGAUGCUUAAAGGAUAUGUAGGAAUACAGAAGGUUAUAUUCCCUGACAUUAGAUCUUUACAGGG [theeternabot_exclusion_KL_FMN_A_44]”, the “apparent KD of K4 kissing-loop reporter” value (input ligand: FMN 200 uM) was 117 nM, the “apparent KD of K4 kissing-loop reporter” value (input ligand: arginine 13.2 mM) was 134 nM and the “apparent KD of K4 kissing-loop reporter” value (input ligand: none) was 105 nM. The “apparent KD of K4 kissing-loop reporter” value [1] was 151 nM and the “apparent KD of K4 kissing-loop reporter” value [2] was 90.4 nM.

For “GCCGUACGCAUGGAUACCAGCACUCGUUGAGUGAUGUUCACGAGGUGGUAUUCGACGGGCUGCCCUUGGCAGCCAUGCGUACGGC”, the “apparent KD of K4 kissing-loop reporter” value (input ligand: FMN 200 uM) was 111 nM, the “apparent KD of K4 kissing-loop reporter” value (input ligand: arginine 13.2 mM) was 87.3 nM and the “apparent KD of K4 kissing-loop reporter” value (input ligand: none) was 102 nM. The “apparent KD of K4 kissing-loop reporter” value [1] was 99 nM and the “apparent KD of K4 kissing-loop reporter” value [2] was 121 nM.

In the case of “CCUAUCUCAUACGAUACCAGUCAAUUAAAACGAGUGAUGUUCGAAAAUUUGCCAUAUAAUGACCCUUGGCAGCGUAUGGGAUAGG [Ex Theophylline B K4 7]”, the “apparent KD of K4 kissing-loop reporter” value (input ligand: FMN 200 uM) is reported as 187 nM, the “apparent KD of K4 kissing-loop reporter” value (input ligand: arginine 13.2 mM) is reported as 196 nM and the “apparent KD of K4 kissing-loop reporter” value (input ligand: none) is reported as 194 nM. For the same sequence, the “apparent KD of K4 kissing-loop reporter” value [1] was 197 nM and the “apparent KD of K4 kissing-loop reporter” value [2] was 164 nM.

“GGAGGGAUCUCGGCCGCCACUCAUAAGAAAUGGGCCUCAGAGAUAUAGUGAUGUUAUGUAAAGAAGAGGACCGGGAGAAAGAAGG [ExTryptoB.Db]” was tested, and the “apparent KD of K4 kissing-loop reporter” value (input ligand: FMN 200 uM) was 148 nM, the “apparent KD of K4 kissing-loop reporter” value (input ligand: arginine 13.2 mM) was 141 nM and the “apparent KD of K4 kissing-loop reporter” value (input ligand: none) was 141 nM. The “apparent KD of K4 kissing-loop reporter” value [1] was 135 nM and the “apparent KD of K4 kissing-loop reporter” value [2] was 144 nM.

With “UCCCUAAAGGGAGAUACCAGUAAAGAAGUGACGGAGUGGAGUGAUGUUCCAUAUUACUGAUACCCUUGGCAGCUCUUUUGAUUAC [theeternabot_sameState_KL_Theo_B_47]” the “apparent KD of K4 kissing-loop reporter” value (input ligand: FMN 200 uM) was 108 nM, the “apparent KD of K4 kissing-loop reporter” value (input ligand: arginine 13.2 mM) was 155 nM and the “apparent KD of K4 kissing-loop reporter” value (input ligand: none) was 113 nM. For the same sequence, the “apparent KD of K4 kissing-loop reporter” value [1] was 187 nM and the “apparent KD of K4 kissing-loop reporter” value [2] was 93.2 nM.

For “UGAUACCAGACUGAUACCAGCCAGUGAUGUUGGCAAUAUCCAAGGUGAGUCAAAGACUCGGGCCCUUGGCAGCAGUCUGGUAUCU [TheoBX 7 #SwitchBubble #StaticStem]”, the “apparent KD of K4 kissing-loop reporter” value (input ligand: FMN 200 uM) was 146 nM, the “apparent KD of K4 kissing-loop reporter” value (input ligand: arginine 13.2 mM) was 139 nM and the “apparent KD of K4 kissing-loop reporter” value (input ligand: none) was 148 nM. The “apparent KD of K4 kissing-loop reporter” value [1] was 152 nM and the “apparent KD of K4 kissing-loop reporter” value [2] was 135 nM.

“AUUCGUUUAUGUGAUACCAGACUUUGCAGUGAUGUUGCAUUAAUUAUUGAUGAUUAGUUUGUCCCUUGGCAGCACUAUUUAUUUA [JR_SSTheophyB_Sub003]” was tested, and the “apparent KD of K4 kissing-loop reporter” value (input ligand: FMN 200 uM) was 54.6 nM, the “apparent KD of K4 kissing-loop reporter” value (input ligand: arginine 13.2 mM) was 105 nM and the “apparent KD of K4 kissing-loop reporter” value (input ligand: none) was 63.8 nM. The “apparent KD of K4 kissing-loop reporter” value [1] was 104 nM and the “apparent KD of K4 kissing-loop reporter” value [2] was 47.7 nM.

For “CGGCGGAGUGAUGUUCUGCUCGCUCCGGAUACCAGCUUCGCCAGAGGCCCUUGGCAGCCGGGCGGCCCAGUGAUGUUGGGUUGCG [Same State Theophylline A GF 17]”, the “apparent KD of K4 kissing-loop reporter” value (input ligand: FMN 200 uM) was 297 nM, the “apparent KD of K4 kissing-loop reporter” value (input ligand: arginine 13.2 mM) was 243 nM and the “apparent KD of K4 kissing-loop reporter” value (input ligand: none) was 277 nM. For the same sequence, the “apparent KD of K4 kissing-loop reporter” value [1] was 246 nM and the “apparent KD of K4 kissing-loop reporter” value [2] was 237 nM.

In the case of “UAAGAGGACCACUGCAAAAGUCCUCGAAUACGAGGACCGGUACGGCCGCCACUCGAUAAUUUGCAGUGAUGUUGCAAGUAAGAAU [BrourdMod 4 - Jieux - Same State Tryptophan A]”, the “apparent KD of K4 kissing-loop reporter” value (input ligand: FMN 200 uM) is reported as 120 nM, the “apparent KD of K4 kissing-loop reporter” value (input ligand: arginine 13.2 mM) is reported as 158 nM and the “apparent KD of K4 kissing-loop reporter” value (input ligand: none) is reported as 130 nM. The “apparent KD of K4 kissing-loop reporter” value [1] was 201 nM and the “apparent KD of K4 kissing-loop reporter” value [2] was 71.2 nM.
